These results are taken from publication PMC6230994 (2018).

The assay concerns the target His6:ΔIBB-IMPORTIN-α2 (Arabidopsis thaliana (Mouse-ear cress), UniProt F4JL11). The assay is described as follows: analytical SEC.

Sequence of His6:ΔIBB-IMPORTIN-α2 (F4JL11 75-535, stated change not applied): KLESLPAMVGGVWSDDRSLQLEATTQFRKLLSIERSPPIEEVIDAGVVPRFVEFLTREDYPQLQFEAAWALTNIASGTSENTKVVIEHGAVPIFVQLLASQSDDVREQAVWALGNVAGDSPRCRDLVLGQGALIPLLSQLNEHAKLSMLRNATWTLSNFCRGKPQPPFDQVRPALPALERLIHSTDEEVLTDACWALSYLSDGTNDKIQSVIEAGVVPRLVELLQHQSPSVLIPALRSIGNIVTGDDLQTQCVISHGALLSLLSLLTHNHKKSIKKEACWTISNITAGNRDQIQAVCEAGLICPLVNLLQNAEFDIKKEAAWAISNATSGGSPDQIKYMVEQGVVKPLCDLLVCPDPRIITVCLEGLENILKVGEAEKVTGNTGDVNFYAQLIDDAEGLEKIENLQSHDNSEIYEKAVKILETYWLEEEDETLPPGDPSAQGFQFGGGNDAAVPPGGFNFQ

B1: His6:SUMO:SAP (protein)
chain: MANKLKVDELRLKLAERGLSTTGVKAVLVERLEEAIAEDTKKEESKSKRKRNSSNDTYESNKLIAIGEFRGMIVKELREEAIKRGLDTTGTKKDLLERLCNDANN
B1: the binding result is “no binding”.
